According to article PMC10889563, “The Multienzyme Complex Nature of Dehydroepiandrosterone Sulfate Biosynthesis” (International Journal of Molecular Sciences, 2024):

T1: full-length steroid 17-alpha-hydroxylase/17,20-lyase (CYP17A1full) (UniProt P05093 1-508)
T1 construct: steroid 17-alpha-hydroxylase/17,20 lyase (CYP17A1), full-length recombinant form; also called full-length CYP17A1
T1 sequence (looked up): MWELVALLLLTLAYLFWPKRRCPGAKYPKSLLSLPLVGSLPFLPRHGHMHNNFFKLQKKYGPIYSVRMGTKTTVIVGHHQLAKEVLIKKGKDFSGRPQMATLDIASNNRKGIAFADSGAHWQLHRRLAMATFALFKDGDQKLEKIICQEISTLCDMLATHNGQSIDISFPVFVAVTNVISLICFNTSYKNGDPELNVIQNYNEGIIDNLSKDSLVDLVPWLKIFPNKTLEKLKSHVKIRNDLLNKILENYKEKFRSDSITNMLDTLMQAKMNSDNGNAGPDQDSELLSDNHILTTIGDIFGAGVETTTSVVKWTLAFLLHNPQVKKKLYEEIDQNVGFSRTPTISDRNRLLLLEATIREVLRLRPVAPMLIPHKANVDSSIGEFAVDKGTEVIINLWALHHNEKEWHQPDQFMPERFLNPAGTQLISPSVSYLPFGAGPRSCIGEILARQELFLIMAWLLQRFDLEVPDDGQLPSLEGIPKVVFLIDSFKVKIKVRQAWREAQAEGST

B1: sulfotransferase SULT1E1 (enzyme, human, UniProt P49888 1-294, looked up)
chain: MNSELDYYEKFEEVHGILMYKDFVKYWDNVEAFQARPDDLVIATYPKSGTTWVSEIVYMIYKEGDVEKCKEDVIFNRIPFLECRKENLMNGVKQLDEMNSPRIVKTHLPPELLPASFWEKDCKIIYLCRNAKDVAVSFYYFFLMVAGHPNPGSFPEFVEKFMQGQVPYGSWYKHVKSWWEKGKSPRVLFLFYEDLKEDIRKEVIKLIHFLERKPSEELVDRIIHHTSFQEMKNNPSTNYTTLPDEIMNQKLSPFMRKGITGDWKNHFTVALNEKFDKHYEQQMKESTLKFRTEI
notes: cytosolic sulfotransferase SULT1E1, human, recombinant; The oligomeric state in the assay is not known to the authors; source: E. coli DH5α, purified (Ni-NTA agarose, hydroxyapatite)

Legend:
Conditions in all cases: both partners purified
[1] = target: T1, full-length steroid …; test: SPR; SULT1E1 or SULT2A1 covalently immobilised on CM5 chip via amino groups; CYP17A1full or CYB5A injected at 50 to 5000 nM in HBS-EP+, 25 °C; with 1 mM PAPS; 1:1 Langmuir model
[2] = target: T1, full-length steroid …; test: SPR; SULT1E1 or SULT2A1 covalently immobilised on CM5 chip via amino groups; CYP17A1full, CYP17A1tr or CYB5A injected at 50 to 5000 nM in HBS-EP+ (10 mM HEPES, 150 mM NaCl, 3 mM EDTA, 0.05% P20, pH 7.4), 25 °C; no PAPS; 1:1 Langmuir model
sulfotransferase SULT1E1 [3] = target: B1; test: SPR; SULT1E1 or SULT2A1 covalently immobilised on CM5 chip via amino groups; CYP17A1full or CYB5A injected at 50 to 5000 nM in HBS-EP+, 25 °C; with 1 mM PAPS; 1:1 Langmuir model
sulfotransferase SULT1E1 [4] = target: B1; test: SPR; SULT1E1 or SULT2A1 covalently immobilised on CM5 chip via amino groups; CYP17A1full, CYP17A1tr or CYB5A injected at 50 to 5000 nM in HBS-EP+ (10 mM HEPES, 150 mM NaCl, 3 mM EDTA, 0.05% P20, pH 7.4), 25 °C; no PAPS; 1:1 Langmuir model
[5] = target: T2, NADPH-dependent cytochrome P450 reductase (CPR) (UniProt P16435 1-677, FAD and FMN cofactors; species (human assumed, rat possible) and construct limits are only in Figure S5 or cited work); test: SPR; CPR covalently immobilised on CM5 chip via amino groups; SULT1E1 or SULT2A1 as analyte; HBS-EP+, 25 °C; with 1 mM PAPS; 1:1 Langmuir model
[6] = target: T2, NADPH-dependent cytochrome P450 …; test: SPR; CPR covalently immobilised on CM5 chip via amino groups; SULT1E1 or SULT2A1 as analyte; HBS-EP+, 25 °C; no PAPS; 1:1 Langmuir model

T2 sequence (P16435 whole entry): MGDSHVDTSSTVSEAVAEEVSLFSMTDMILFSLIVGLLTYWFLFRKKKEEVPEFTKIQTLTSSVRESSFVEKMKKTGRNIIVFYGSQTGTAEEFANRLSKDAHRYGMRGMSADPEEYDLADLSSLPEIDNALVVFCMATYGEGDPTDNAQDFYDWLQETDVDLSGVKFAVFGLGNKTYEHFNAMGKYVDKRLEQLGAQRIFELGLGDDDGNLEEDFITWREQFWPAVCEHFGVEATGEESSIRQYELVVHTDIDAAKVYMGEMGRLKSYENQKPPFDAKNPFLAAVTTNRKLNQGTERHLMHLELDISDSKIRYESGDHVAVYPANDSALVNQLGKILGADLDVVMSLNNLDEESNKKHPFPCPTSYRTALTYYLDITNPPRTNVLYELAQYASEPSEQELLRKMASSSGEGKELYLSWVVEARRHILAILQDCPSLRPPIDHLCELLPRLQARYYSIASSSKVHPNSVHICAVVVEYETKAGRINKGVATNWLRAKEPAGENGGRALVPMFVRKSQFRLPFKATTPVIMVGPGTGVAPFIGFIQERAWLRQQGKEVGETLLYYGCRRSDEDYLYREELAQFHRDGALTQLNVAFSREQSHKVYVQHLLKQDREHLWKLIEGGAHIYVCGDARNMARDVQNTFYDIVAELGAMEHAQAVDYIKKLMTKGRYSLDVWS

Binder	Kd [1] [nM]	koff [1] [s⁻¹]	kon [1] [M⁻¹ s⁻¹]	Kd [2] [nM]	koff [2] [s⁻¹]	kon [2] [M⁻¹ s⁻¹]	Kd (sulfotransferase SULT1E1 [3]) [nM]	koff (sulfotransferase SULT1E1 [3]) [s⁻¹]	kon (sulfotransferase SULT1E1 [3]) [M⁻¹ s⁻¹]	Kd (sulfotransferase SULT1E1 [4]) [nM]	koff (sulfotransferase SULT1E1 [4]) [s⁻¹]	kon (sulfotransferase SULT1E1 [4]) [M⁻¹ s⁻¹]	Kd [5] [nM]	koff [5] [s⁻¹]	kon [5] [M⁻¹ s⁻¹]	Kd [6] [nM]	koff [6] [s⁻¹]	kon [6] [M⁻¹ s⁻¹]
B1	138 ± 15	0.00076	5520	196 ± 21	0.00058	2960												
microsomal cytochrome b5 (CYB5A) (natural protein, UniProt P00167 1-134, looked up, microsomal cytochrome b5 (CYB5A), recombinant) MAEQSDEAVKYYTLEEIQKHNHSKSTWLILHHKVYDLTKFLEEHPGGEEVLREQAGGDATENFEDVGHSTDAREMSKTFIIGELHPDDRPKLNKPPETLITTIDSSSSWWTNWVIPAISAVAVALMYRLYMAED							88 ± 8	0.00067	7650	71 ± 8	0.00098	13800						
sulfotransferase SULT2A1 (enzyme, human, UniProt Q06520 1-285, looked up, cytosolic sulfotransferase SULT2A1, human, recombinant; source: E. coli Rosetta, purified (Ni-NTA agarose, hydroxyapatite)) MSDDFLWFEGIAFPTMGFRSETLRKVRDEFVIRDEDVIILTYPKSGTNWLAEILCLMHSKGDAKWIQSVPIWERSPWVESEIGYTALSETESPRLFSSHLPIQLFPKSFFSSKAKVIYLMRNPRDVLVSGYFFWKNMKFIKKPKSWEEYFEWFCQGTVLYGSWFDHIHGWMPMREEKNFLLLSYEELKQDTGRTIEKICQFLGKTLEPEELNLILKNSSFQSMKENKMSNYSLLSVDYVVDKAQLLRKGVSGDWKNHFTVAQAEDFDKLFQEKMADLPRELFPWE	105 ± 12	0.00137	13100	124 ± 11	0.00055	4450							957 ± 89	0.00051	670	1370 ± 126	0.00078	570
